# From the supplement of paper PMC10567573
# B1: CAMK2D (parent)
# chain: IVRLHDSISEEGFHYLVFDLVTGG
# Variants of: B1
# Assay: protein stability index of a GFP-peptide fusion (GPS, HEK-293T) (PSI 1-6); higher = more stable
# Conditions: c terminus: a fixed tail appended
# 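Further: lentivirally expressed fusions sorted by FACS into six bins by GFP to DsRed ratio, PSI derived from sequencing read proportions per bin multiplied by bin number.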
row,Variant,protein stability index
1,L16C,2.49
2,L16S,1.55
3,L16Y,2.98
4,L16I,2.66
5,L16A,3.09
6,L16H,1.39
7,L16F,2.76
8,L16D,1.63
9,L16Q,2.04
10,L16T,1.21
11,L16P,1.74
12,L16R,2.51
13,L16G,2.17
14,L16E,1.57
15,L16N,1.5
16,L4Q,1.69
17,L4N,1.87
18,L4H,2.53
19,L4D,1.8
20,L4S,1.9
21,L4F,2.4
22,L4K,3.71
23,L4T,1.29
24,L4A,2.4
25,L4R,1.62

row,Variant,protein stability index
1,L4W,1.57
2,L4E,1.69
3,L4P,2.39
4,E10N,4.11
5,E10A,3.84
6,E10R,2.65
7,E10M,2.53
8,E10F,2.4
9,E10K,2.7
10,E10I,3.06
11,E10H,3.04
12,E10Y,2.83
13,E10T,3.29
14,E10S,2.15
15,F13N,2.2
16,F13Y,3.07
17,F13P,1.08
18,F13M,2.71
19,F13K,1.43
20,F13A,1.76
21,F13H,1.62
22,F13S,3.27
23,F13D,1.91
24,F13Q,1.37
25,F13T,3.34

row,Variant,protein stability index
1,F13W,2.18
2,F13E,2.6
3,F13L,2.02
4,H5S,3.02
5,H5D,2.94
6,H5R,2.39
7,H5P,3.91
8,H5Y,3.23
9,H5N,2.33
10,H5K,4.72
11,H5C,3.23
12,H5I,3.99
13,H5F,3.15
14,D6N,1.95
15,D6M,2.4
16,D6T,4.86
17,D6C,2.66
18,D6A,3.03
19,D6P,4.25
20,G23L,2.92
21,G23T,3.2
22,G23C,4.08
23,G23H,2.88
24,G23I,2.57
25,G23N,2.49

row,Variant,protein stability index
1,G23Y,4.01
2,G23W,2.89
3,G23A,3.32
4,G23P,3.1
5,G23K,2.19
6,G23Q,2.59
7,G23V,2.43
8,G23E,3.03
9,G23R,2.53
10,S7T,3.19
11,S7W,2.25
12,S7M,3.09
13,S7Q,2.4
14,S7H,3.68
15,S7E,2.24
16,S7L,2.56
17,S7A,3.35
18,S7N,3.29
19,S7Y,3.15
20,S7G,1.96
21,I8G,1.64
22,I8P,3.04
23,I8Q,1.69
24,I8T,2.61
25,I8K,2.4

row,Variant,protein stability index
1,I8C,2.85
2,I8H,3.29
3,I8R,1.65
4,I8A,2.21
5,I8E,1.44
6,I8S,3.33
7,I8N,3.02
8,I8Y,3.84
9,V21G,3.19
10,V21N,4.11
11,V21F,3.33
12,V21P,2.41
13,V21W,4.26
14,V21L,2.71
15,V21T,2.88
16,V21K,1.57
17,V21A,1.11
18,V21D,3.2
19,V21M,1.93
20,V21Y,3.1
21,V21H,2
22,V21Q,2.38
23,Y15Q,1.58
24,Y15D,1.89
25,Y15P,1.75

row,Variant,protein stability index
1,Y15S,1.06
2,Y15N,2.46
3,Y15W,2.7
4,Y15A,2.98
5,Y15R,1.21
6,Y15E,1.7
7,Y15F,2.63
8,Y15I,2.54
9,Y15H,1.2
10,Y15K,2.76
11,S9G,1.99
12,S9F,1.94
13,S9N,2.94
14,S9D,2.36
15,S9Y,3.58
16,S9L,4.27
17,S9P,5.65
18,S9Q,4.38
19,S9K,2.84
20,S9E,3.35
21,S9M,3.39
22,H14K,2.2
23,H14D,1.85
24,H14Y,2.71
25,H14A,2.32

row,Variant,protein stability index
1,H14C,2.29
2,H14E,1.83
3,H14P,2.79
4,H14M,2.25
5,G24E,4.45
6,G24S,2.88
7,G24R,2.09
8,G24D,2.26
9,G24M,3.78
10,G24Y,3.88
11,G24Q,2.89
12,G24L,2.13
13,G24C,2.4
14,G24P,3.4
15,G24K,2.87
16,G24F,1.57
17,G24V,3.44
18,G24W,2.09
19,G12I,2.16
20,G12E,2.48
21,G12W,3.89
22,G12A,2.25
23,G12S,3.25
24,G12T,3.32
25,G12N,2.04

row,Variant,protein stability index
1,G12V,3.05
2,G12P,2.31
3,G12Y,3.96
4,T22C,3.58
5,T22Y,3.62
6,T22M,2.02
7,T22E,2.96
8,T22H,2.24
9,T22S,2.67
10,T22I,2.22
11,T22N,4.16
12,T22K,3.31
13,L20S,1.45
14,L20H,1.35
15,L20K,2.41
16,L20V,3.87
17,L20I,3.09
18,L20M,3.24
19,L20R,2.04
20,L20G,1.93
21,L20C,3.9
22,L20T,2.27
23,L20Y,2.67
24,L20N,2.25
25,L20D,1.67

row,Variant,protein stability index
1,L20P,1.86
2,L20E,2.05
3,L20Q,2.52
4,L20A,2.13
5,D19Y,3.34
6,D19Q,2.4
7,D19T,1.62
8,D19G,2.15
9,D19A,1.87
10,D19K,2.88
11,D19W,1.91
12,D19V,2.75
13,D19S,4.24
14,D19P,3.21
15,D19L,2.47
16,D19I,2.4
17,D19M,3.68
18,V2Y,3.12
19,V2P,1.46
20,V2T,2.52
21,V2M,1.93
22,E11L,3.7
23,E11D,3.32
24,E11I,1.56
25,E11Y,3.26

row,Variant,protein stability index
1,E11R,3.9
2,E11Q,2.06
3,E11A,2.79
4,E11N,3.39
5,E11P,2.13
6,E11T,2.08
7,E11F,3.42
8,V17L,1
9,V17E,1.69
10,V17H,2.93
11,V17D,1.46
12,V17P,2.04
13,V17N,1.85
14,V17W,2.39
15,V17T,1.75
16,V17S,3.19
17,V17K,2.56
18,V17R,2.13
19,V17Y,3.27
20,V17A,2.78
21,V17F,2.39
22,V17G,3.58
23,V17I,2.58
24,F18A,2.33
25,F18T,2.1

row,Variant,protein stability index
1,F18G,2
2,F18V,4.52
3,F18K,2.17
4,F18N,2.84
5,F18E,2.33
6,F18S,2
7,F18C,1.32
8,F18D,2.67
9,F18P,2.13
10,F18L,2.51
11,F18R,1.79
12,F18Q,1.33
13,F18Y,1.43
14,F18H,1.63
15,R3P,2.28
16,R3E,2.25
17,R3V,2.23
18,R3S,1.57
19,R3Y,2.58
20,R3H,3.12
21,R3Q,2
22,R3C,2.03
23,R3G,2.41
